From US6632621B1, “G protein-coupled receptor-like receptors and modulators thereof” (priority 1999, dated 2003)
Where no end group is shown, it is not given here. [ ]: non-standard residue; d: D form. Tyr(3-I) = N[C@@H](Cc1ccc(O)c(I)c1)C(=O)O

T1: CEGPCR4 (C. elegans)
T1 construct: Expressed in CHO cells; also called CEGPCR4 receptor; CEGPCR4/CHO membranes
T1 chain: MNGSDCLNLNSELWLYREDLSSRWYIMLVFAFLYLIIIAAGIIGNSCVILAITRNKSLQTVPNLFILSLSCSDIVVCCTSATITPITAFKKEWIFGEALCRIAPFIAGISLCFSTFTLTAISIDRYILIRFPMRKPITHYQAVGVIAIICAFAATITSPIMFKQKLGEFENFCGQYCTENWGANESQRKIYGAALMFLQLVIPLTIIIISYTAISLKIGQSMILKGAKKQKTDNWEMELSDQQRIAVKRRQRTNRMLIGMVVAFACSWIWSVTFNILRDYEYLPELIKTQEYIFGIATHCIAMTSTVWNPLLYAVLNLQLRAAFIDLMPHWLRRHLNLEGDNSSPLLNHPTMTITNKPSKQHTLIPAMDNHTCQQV

B1: 3-Iodo-Y-VPGVLRF-NH2 (peptide)
peptide: [Tyr(3-I)]VPGVLRF-NH2
modifications: N-terminus assumed
SMILES: CC(C)C[C@H](NC(=O)[C@@H](NC(=O)CNC(=O)[C@@H]1CCCN1C(=O)[C@@H](NC(=O)[C@@H](N)Cc1ccc(O)c(I)c1)C(C)C)C(C)C)C(=O)N[C@@H](CCCNC(=N)N)C(=O)N[C@@H](Cc1ccccc1)C(N)=O
notes: synthetic
B2: 3-Iodo-Y-GVLRF-NH2 (peptide)
peptide: [Tyr(3-I)]GVLRF-NH2
modifications: N-terminus assumed
SMILES: CC(C)C[C@H](NC(=O)[C@@H](NC(=O)CNC(=O)[C@@H](N)Cc1ccc(O)c(I)c1)C(C)C)C(=O)N[C@@H](CCCNC(=N)N)C(=O)N[C@@H](Cc1ccccc1)C(N)=O
notes: synthetic

Molecular target: T1, CEGPCR4
Experiment: competition binding assay, CEGPCR4/CHO membranes; IC50 range printed once for block r39-r54
B1: binds. B2: binds. DVPGVLRF-NH2 (flp18) [DVPGVLRF-NH2]: binds. YVPGVLRF-NH2 (synthetic) [Y-VPGVLRF-NH2]: binds. YDVPGVLRF-NH2 (synthetic) [Y-DVPGVLRF-NH2]: binds.
